The results in this text go back to patent US20160200782A1 (MOERAE MATRIX, published 2016).

Among the targets are Rsk3(h) (human, UniProt Q15349 1-733, limits assumed); FGFR4(h) (human, UniProt P22455 460-802, limits assumed); HIPK2(h) (human, UniProt Q9H2X6 165-564, limits assumed); CSK(h) (human, UniProt P41240 1-450); DAPK1(h) (human, UniProt P53355 1-289, limits assumed); Tie2(Y897S)(h) (human, UniProt Q02763 771-1124, limits assumed); KDR(h) (human, UniProt P35968 790-1356, limits assumed); NEK7(h) (human, UniProt Q8TDX7 1-302); PKCθ(h) (human, UniProt Q04759 1-706); PDGFRα(h) (human, UniProt P16234 550-1089, limits assumed); cSRC(h) (human, UniProt P12931 1-536, limits assumed).

What all share (test): cell-based or functional assay
For another test, the target named is T1, Ret(V804M)(h) (human, UniProt P07949 658-1114, limits assumed).
T1 sequence (looked up): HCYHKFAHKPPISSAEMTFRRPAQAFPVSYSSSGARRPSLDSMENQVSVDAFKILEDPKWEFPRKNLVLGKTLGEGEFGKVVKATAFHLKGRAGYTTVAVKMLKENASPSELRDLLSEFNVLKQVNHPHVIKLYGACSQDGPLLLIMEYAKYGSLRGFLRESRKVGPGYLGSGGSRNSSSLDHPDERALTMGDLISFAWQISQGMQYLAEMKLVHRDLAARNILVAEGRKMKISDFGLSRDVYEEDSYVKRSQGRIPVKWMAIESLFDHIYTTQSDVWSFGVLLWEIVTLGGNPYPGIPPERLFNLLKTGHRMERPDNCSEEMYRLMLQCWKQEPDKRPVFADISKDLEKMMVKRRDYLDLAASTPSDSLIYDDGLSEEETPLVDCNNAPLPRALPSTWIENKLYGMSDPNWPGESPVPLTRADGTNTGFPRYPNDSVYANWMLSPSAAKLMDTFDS

The target in another test is T2, Flt3(D835Y)(h) (human, UniProt P36888 564-993, limits assumed).
T2 sequence (looked up): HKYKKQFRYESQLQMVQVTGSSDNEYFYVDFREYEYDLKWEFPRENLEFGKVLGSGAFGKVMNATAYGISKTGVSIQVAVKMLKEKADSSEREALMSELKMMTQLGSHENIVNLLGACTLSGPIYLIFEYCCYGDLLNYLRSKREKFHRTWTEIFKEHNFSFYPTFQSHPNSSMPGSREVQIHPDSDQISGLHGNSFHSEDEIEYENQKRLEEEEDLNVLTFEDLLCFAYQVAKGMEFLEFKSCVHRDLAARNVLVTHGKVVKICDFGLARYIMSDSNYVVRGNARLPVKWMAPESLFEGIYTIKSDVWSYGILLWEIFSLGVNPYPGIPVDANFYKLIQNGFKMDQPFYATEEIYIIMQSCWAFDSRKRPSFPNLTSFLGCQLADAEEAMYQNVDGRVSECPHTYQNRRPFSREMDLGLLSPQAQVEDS

The next test addresses T3, ZAP-70(h) (human, UniProt P43403 1-619, limits assumed).
T3 sequence (looked up): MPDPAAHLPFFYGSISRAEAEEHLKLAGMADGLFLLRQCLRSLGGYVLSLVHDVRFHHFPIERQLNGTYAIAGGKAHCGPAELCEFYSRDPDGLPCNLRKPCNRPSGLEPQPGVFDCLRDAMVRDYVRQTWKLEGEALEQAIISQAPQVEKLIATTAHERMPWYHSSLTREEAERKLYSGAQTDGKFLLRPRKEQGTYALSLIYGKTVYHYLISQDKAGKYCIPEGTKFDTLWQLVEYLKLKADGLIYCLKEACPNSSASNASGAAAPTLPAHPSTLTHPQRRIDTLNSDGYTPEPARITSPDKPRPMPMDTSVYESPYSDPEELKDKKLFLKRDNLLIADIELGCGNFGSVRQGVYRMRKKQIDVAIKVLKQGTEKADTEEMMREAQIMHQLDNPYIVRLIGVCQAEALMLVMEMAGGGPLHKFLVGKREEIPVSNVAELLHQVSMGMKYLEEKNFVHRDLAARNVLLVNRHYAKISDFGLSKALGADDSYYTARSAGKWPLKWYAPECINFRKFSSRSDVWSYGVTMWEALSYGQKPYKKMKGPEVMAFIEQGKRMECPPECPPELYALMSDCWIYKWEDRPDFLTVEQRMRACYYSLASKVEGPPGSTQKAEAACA
Further: test concentration or dose not given here.

Chain of FGFR4(h) (P22455 460-802 limits assumed): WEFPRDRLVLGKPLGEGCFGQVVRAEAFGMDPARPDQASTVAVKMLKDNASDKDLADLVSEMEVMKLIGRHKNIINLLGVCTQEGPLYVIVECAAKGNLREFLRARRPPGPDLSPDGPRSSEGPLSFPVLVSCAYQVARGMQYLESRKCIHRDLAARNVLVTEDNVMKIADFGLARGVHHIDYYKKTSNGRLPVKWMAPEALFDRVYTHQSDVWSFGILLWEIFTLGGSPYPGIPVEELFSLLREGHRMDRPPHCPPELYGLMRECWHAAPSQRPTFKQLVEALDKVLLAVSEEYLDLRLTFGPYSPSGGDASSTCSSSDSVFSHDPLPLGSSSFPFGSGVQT
Chain of PKCθ(h) (Q04759 whole entry): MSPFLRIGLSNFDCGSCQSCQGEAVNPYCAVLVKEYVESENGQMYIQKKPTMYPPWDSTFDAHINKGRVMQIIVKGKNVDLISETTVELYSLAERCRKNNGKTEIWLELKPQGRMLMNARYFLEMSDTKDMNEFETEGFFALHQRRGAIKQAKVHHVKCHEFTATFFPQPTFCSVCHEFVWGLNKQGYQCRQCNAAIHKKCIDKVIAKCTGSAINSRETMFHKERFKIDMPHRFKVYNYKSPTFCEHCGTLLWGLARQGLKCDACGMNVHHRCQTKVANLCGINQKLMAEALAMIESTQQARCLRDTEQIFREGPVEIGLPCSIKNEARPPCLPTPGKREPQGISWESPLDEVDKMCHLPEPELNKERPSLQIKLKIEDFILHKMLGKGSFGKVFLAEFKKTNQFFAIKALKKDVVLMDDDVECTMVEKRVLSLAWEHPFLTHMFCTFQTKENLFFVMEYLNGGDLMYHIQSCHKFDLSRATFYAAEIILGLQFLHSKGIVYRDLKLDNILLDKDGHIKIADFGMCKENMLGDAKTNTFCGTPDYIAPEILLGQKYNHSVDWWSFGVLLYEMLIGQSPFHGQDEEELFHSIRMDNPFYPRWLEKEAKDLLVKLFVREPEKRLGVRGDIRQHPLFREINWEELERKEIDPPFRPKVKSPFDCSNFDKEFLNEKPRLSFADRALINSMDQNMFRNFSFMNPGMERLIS
Chain of KDR(h) (P35968 790-1356 limits assumed): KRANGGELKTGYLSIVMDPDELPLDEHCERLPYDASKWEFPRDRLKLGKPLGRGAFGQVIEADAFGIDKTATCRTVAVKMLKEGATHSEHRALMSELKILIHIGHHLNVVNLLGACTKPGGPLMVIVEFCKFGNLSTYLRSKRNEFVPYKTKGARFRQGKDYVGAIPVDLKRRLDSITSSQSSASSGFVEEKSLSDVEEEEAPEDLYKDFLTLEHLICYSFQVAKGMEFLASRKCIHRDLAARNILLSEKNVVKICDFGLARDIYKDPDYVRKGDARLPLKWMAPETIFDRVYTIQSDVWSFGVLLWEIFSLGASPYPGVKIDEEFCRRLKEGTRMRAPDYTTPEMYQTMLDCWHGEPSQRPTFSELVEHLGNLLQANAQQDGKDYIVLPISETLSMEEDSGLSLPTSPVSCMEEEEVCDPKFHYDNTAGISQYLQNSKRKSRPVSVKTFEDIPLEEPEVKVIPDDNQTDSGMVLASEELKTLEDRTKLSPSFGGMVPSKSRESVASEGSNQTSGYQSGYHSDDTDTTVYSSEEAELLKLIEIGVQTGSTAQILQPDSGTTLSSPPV
Chain of CSK(h) (P41240 whole entry): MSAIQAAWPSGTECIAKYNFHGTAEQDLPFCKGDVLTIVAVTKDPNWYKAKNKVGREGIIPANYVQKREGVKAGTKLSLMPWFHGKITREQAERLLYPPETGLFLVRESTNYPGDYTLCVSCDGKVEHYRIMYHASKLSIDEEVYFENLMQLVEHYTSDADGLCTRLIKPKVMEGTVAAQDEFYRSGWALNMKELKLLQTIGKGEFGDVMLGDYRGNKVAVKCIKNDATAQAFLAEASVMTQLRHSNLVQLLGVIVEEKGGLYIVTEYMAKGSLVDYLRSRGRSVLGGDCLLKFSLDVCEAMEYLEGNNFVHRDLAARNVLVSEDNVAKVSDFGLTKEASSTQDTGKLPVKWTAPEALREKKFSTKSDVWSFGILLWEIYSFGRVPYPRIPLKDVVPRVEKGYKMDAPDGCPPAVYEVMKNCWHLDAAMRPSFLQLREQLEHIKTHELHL
Chain of Rsk3(h) (Q15349 whole entry): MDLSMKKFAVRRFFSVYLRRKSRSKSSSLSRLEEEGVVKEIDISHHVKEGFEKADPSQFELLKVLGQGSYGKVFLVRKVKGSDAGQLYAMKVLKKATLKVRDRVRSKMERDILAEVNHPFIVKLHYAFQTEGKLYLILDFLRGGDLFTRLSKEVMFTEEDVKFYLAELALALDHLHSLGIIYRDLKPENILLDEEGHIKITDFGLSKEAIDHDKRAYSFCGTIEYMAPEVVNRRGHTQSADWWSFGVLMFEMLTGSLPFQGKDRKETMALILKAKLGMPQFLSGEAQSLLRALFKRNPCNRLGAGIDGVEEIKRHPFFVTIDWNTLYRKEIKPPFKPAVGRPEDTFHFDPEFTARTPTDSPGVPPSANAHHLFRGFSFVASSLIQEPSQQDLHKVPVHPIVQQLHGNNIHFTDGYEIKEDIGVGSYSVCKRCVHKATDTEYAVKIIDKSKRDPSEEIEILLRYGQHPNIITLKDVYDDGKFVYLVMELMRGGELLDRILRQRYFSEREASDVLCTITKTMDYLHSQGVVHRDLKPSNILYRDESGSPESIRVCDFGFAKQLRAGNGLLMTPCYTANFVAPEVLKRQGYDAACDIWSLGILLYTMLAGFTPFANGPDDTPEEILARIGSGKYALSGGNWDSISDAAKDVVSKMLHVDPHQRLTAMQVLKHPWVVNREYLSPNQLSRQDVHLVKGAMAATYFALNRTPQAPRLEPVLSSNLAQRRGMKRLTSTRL
Chain of Tie2(Y897S)(h) (Q02763 771-1124 Y897S limits assumed): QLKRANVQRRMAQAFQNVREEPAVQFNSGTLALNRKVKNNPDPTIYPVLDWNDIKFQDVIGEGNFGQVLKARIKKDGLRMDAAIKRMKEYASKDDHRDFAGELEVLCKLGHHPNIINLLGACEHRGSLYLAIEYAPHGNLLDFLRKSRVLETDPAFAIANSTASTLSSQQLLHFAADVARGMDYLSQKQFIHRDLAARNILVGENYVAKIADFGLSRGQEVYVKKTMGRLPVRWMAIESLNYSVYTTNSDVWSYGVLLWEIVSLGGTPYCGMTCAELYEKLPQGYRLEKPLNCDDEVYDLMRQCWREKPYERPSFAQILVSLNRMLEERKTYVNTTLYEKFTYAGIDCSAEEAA
Chain of HIPK2(h) (Q9H2X6 165-564 limits assumed): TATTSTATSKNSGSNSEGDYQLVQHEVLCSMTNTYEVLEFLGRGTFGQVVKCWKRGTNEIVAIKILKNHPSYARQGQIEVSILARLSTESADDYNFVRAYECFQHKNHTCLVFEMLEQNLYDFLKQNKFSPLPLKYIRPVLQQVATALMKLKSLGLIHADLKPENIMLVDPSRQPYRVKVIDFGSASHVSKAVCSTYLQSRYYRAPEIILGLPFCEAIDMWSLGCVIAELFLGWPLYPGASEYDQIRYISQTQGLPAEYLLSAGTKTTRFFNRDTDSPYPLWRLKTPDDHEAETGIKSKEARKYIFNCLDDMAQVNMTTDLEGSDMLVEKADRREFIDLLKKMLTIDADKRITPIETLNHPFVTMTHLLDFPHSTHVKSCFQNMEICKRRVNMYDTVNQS
Chain of DAPK1(h) (P53355 1-289 limits assumed): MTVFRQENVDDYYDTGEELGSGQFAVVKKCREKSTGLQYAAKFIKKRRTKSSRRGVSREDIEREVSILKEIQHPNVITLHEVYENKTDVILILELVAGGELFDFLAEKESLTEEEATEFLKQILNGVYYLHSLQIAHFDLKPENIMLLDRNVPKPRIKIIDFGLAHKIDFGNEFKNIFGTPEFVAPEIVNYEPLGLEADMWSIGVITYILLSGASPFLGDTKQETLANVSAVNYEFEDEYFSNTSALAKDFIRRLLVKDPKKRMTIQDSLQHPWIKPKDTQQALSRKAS
Chain of PDGFRα(h) (P16234 550-1089 limits assumed): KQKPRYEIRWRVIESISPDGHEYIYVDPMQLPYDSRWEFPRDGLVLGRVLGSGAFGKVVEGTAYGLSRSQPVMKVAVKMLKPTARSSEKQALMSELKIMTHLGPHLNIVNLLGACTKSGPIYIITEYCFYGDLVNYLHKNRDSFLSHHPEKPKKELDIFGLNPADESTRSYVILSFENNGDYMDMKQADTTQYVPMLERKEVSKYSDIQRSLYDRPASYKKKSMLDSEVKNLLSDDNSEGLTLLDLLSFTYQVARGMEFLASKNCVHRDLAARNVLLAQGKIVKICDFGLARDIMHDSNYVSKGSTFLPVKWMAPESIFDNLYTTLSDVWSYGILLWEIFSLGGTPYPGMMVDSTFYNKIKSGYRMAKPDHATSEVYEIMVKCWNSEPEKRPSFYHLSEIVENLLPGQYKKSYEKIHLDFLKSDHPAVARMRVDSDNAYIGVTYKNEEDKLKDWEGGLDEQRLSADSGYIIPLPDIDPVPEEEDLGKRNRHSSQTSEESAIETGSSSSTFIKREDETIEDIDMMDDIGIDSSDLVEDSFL
Chain of NEK7(h) (Q8TDX7 whole entry): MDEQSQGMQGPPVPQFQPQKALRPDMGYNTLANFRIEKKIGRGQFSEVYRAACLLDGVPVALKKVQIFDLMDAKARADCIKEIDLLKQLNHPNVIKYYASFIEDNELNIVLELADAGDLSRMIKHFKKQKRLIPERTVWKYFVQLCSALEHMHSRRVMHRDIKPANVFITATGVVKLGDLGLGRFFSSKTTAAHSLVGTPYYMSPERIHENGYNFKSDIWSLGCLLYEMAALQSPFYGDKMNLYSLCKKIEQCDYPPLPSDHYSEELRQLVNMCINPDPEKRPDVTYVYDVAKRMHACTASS

On to FAKLAARLYRKALARQLGVAA [MMI-0300], for which the “% activity” value amounted to 76% with Rsk3(h); 28% with FGFR4(h); 73% with HIPK2(h); 49% with CSK(h); 46% in the test with DAPK1(h); 95% with Ret(V804M)(h). Further, the “% activity” value in the test with Tie2(Y897S)(h) was found to be 83%; with KDR(h), 101%; with Flt3(D835Y)(h), 80%; with NEK7(h) it was 84%; in the test with ZAP-70(h) it was 75%; with PKCθ(h) it was 88%. The figures for the “% activity” value with PDGFRα(h) and in the test with cSRC(h) were 65% and 26%, respectively.
Consider KAFAKLAARLYRKALARQLGVAA [MMI-0400], for which the “% activity” value with Rsk3(h) came to 71%; with FGFR4(h), 19%; with HIPK2(h), 90%; with CSK(h), 16%; with DAPK1(h), 36%; with Ret(V804M)(h), 87%. In addition, the “% activity” value with Tie2(Y897S)(h) came out at 87%; with KDR(h) it was 94%; with Flt3(D835Y)(h), 71%; with NEK7(h), 87%; with ZAP-70(h), 33%; with PKCθ(h) it was 76%. The “% activity” value amounted to 40% with PDGFRα(h) and 14% in the test with cSRC(h).
